Experiment [1] has as its target T1, human OX40 on cells (CHO-hOX40, 293HEK-hOX40, Jurkat-hOX40, activated primary CD4+ T cells) (human, UniProt P43489 29-277).
T1 construct: whole, on cells; The cell type is told in each assay; also called CHO-OX40
T1 sequence (looked up): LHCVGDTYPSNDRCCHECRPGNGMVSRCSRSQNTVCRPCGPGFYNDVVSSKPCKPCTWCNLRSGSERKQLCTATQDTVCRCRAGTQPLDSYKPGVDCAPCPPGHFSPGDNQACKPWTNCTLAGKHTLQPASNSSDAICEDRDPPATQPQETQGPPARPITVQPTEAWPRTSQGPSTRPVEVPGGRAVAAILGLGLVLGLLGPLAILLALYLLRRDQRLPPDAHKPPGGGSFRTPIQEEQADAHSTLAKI
The experiment in a line: flow cytometry, CHO-hOX40, 25 nM. Background: In flow cytometry, cells or beads pass a laser one at a time.

Experiment [2] has as its target T1, human OX40 on cells (CHO-hOX40, …). The experiment in a line: flow cytometry, CHO-hOX40, 50 nM.
For experiment [3] the target is unchanged. Nature of the experiment: flow cytometry, CHO-hOX40, 100 nM.
The target is the same in experiment [4]. Nature of the experiment: flow cytometry, CHO-hOX40, 200 nM.
Experiment [5] has the same target. Nature of the experiment: flow cytometry, CHO-hOX40, 12.5 nM.
Experiment [6] has the same target. Nature of the experiment: flow cytometry, CHO-hOX40, 6.25 nM.
Experiment [7] shares this target. Nature of the experiment: flow cytometry, CHO-hOX40, 3.125 nM.
Experiment [8] shares this target. The experiment in a line: flow cytometry, CHO-hOX40, 1.5625 nM.
The target is the same in experiment [9]. The experiment in a line: flow cytometry, CHO-hOX40, 0.78125 nM.
The target is the same in experiment [10]. The experiment in a line: flow cytometry, CHO-hOX40, 0.390625 nM.
The target is the same in experiment [11]. The experiment in a line: flow cytometry, CHO-hOX40, 0.1953125 nM.
The target is the same in experiment [12]. The experiment in a line: flow cytometry, CHO-hOX40, 0.09765625 nM.
Experiment [13] shares this target. Nature of the experiment: flow cytometry, CHO-hOX40, 0.024414063 nM.
Experiment [14] has the same target. Nature of the experiment: flow cytometry, CHO-hOX40, 0.048828125 nM.
Experiment [15] shares this target. The experiment in a line: flow cytometry, CHO-hOX40, IgG2 made in 293HEK.
Experiment [16] shares this target. Nature of the experiment: cell-based or functional assay.

B1: ADI-20051, IgG2 format (antibody)
heavy: QVQLQQWGAGLLKPSETLSLTCAVYGGSFSGYYWSWIRQPPGKGLEWIGEIDHSGSTNYNPSLKSRVTISVDTSKNQFSLKLSSVTAADTAVYYCARDGGGGYASPFDYWGQGTLVTVSSASTKGPSVFPLAPCSRSTSESTAALGCLVKDYFPEPVTVSWNSGALTSGVHTFPAVLQSSGLYSLSSVVTVPSSNFGTQTYTCNVDHKPSNTKVDKTVERKCCVECPPCPAPPVAGPSVFLFPPKPKDTLMISRTPEVTCVVVDVSHEDPEVQFNWYVDGVEVHNAKTKPREEQFNSTFRVVSVLTVVHQDWLNGKEYKCKVSNKGLPAPIEKTISKTKGQPREPQVYTLPPSREEMTKNQVSLTCLVKGFYPSDIAVEWESNGQPENNYKTTPPMLDSDGSFFLYSKLTVDKSRWQQGNVFSCSVMHEALHNHYTQKSLSLSPG
light: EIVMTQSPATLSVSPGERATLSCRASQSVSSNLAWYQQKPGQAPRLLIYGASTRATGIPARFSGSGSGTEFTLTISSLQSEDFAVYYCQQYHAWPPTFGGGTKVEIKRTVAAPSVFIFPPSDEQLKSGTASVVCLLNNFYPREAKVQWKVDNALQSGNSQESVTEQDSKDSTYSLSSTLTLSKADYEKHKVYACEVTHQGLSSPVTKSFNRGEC
notes: Made in 293HEK cells
Usually EC50 stands for the concentration needed to bring the measured effect to its halfway point. High values mean a need for much substance, low ones an effect from little substance. Consider B1, for which the MFI was 2.33e+06 MFI in experiment [1]; 2.1e+06 MFI in experiment [2]; 2.35e+06 MFI in experiment [3]; 2.51e+06 MFI in experiment [4]; 1.62e+06 MFI in experiment [5]; 1.33e+06 MFI in experiment [6]. The MFI in experiment [7] worked out at 913000 MFI; in experiment [8], 611000 MFI; in experiment [9], 315000 MFI; in [10], 156000 MFI; in [11], 80500 MFI; in experiment [12] it was 40700 MFI. For the same molecule, the results for the MFI in [13] and in experiment [14] were 20900 MFI and 19400 MFI, respectively. In experiment [15], the response was half-maximal at 5.49 nM (EC50).

B2: ADI-20118, IgG2 format (antibody)
heavy: QVQLVQSGAEVKKPGASVKVSCKASGYTFTSYAISWVRQAPGQGLEWMGWISAYNGNTNYAQKLQGRVTMTTDTSTSTAYMELRSLRSDDTAVYYCARSGGGSGPNWFDPWGQGTLVTVSSASTKGPSVFPLAPCSRSTSESTAALGCLVKDYFPEPVTVSWNSGALTSGVHTFPAVLQSSGLYSLSSVVTVPSSNFGTQTYTCNVDHKPSNTKVDKTVERKCCVECPPCPAPPVAGPSVFLFPPKPKDTLMISRTPEVTCVVVDVSHEDPEVQFNWYVDGVEVHNAKTKPREEQFNSTFRVVSVLTVVHQDWLNGKEYKCKVSNKGLPAPIEKTISKTKGQPREPQVYTLPPSREEMTKNQVSLTCLVKGFYPSDIAVEWESNGQPENNYKTTPPMLDSDGSFFLYSKLTVDKSRWQQGNVFSCSVMHEALHNHYTQKSLSLSPG
light: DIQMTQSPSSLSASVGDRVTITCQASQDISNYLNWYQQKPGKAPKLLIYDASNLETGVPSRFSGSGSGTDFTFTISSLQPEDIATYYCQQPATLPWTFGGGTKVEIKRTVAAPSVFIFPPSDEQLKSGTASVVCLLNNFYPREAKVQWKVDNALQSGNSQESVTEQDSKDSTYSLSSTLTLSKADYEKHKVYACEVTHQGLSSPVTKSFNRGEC
notes: Made in 293HEK cells
On to B2, for which the MFI in [1] amounted to 1.5e+06 MFI; in experiment [2], 1.38e+06 MFI; in experiment [3], 1.53e+06 MFI; in [4], 1.72e+06 MFI; in experiment [5], 1.13e+06 MFI; in experiment [6], 889000 MFI. The MFI in [7] came out at 600000 MFI; in [8] it was 352000 MFI; in experiment [9] it was 207000 MFI; in [10], 120000 MFI; in [11], 60400 MFI; in [12] it was 36800 MFI. Also, the MFI in experiment [13] came to 16500 MFI; in [14], 18400 MFI. In experiment [15], the EC50 came to 5.84 nM.

B3: ADI-20112, IgG2 format (antibody)
heavy: QVQLVESGGGVVQPGRSLRLSCAASGFTFSSYGMHWVRQAPGKGLEWVAVISYDGSNKYYADSVKGRFTISRDNSKNTLYLQMNSLRAEDTAVYYCARGRPWYSETGTSAFDIWGQGTMVTVSSASTKGPSVFPLAPCSRSTSESTAALGCLVKDYFPEPVTVSWNSGALTSGVHTFPAVLQSSGLYSLSSVVTVPSSNFGTQTYTCNVDHKPSNTKVDKTVERKCCVECPPCPAPPVAGPSVFLFPPKPKDTLMISRTPEVTCVVVDVSHEDPEVQFNWYVDGVEVHNAKTKPREEQFNSTFRVVSVLTVVHQDWLNGKEYKCKVSNKGLPAPIEKTISKTKGQPREPQVYTLPPSREEMTKNQVSLTCLVKGFYPSDIAVEWESNGQPENNYKTTPPMLDSDGSFFLYSKLTVDKSRWQQGNVFSCSVMHEALHNHYTQKSLSLSPG
light: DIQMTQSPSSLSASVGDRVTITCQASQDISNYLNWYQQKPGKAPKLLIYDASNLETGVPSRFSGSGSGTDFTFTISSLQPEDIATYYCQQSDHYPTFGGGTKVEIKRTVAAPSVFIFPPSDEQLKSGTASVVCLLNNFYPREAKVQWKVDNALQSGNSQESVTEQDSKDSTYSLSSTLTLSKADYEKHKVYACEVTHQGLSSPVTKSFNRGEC
notes: Made in 293HEK or CHO cells; also called ADI-20112-g2
With B3, the “EC50, NFkB-luciferase reporter in Jurkat-hOX40 mixed with Raji cells” value in experiment [16] stood at 0.246 nM. In addition, the MFI in [1] came out at 1.83e+06 MFI; in experiment [2] it was 1.55e+06 MFI; in [3], 1.78e+06 MFI; in experiment [4], 1.79e+06 MFI; in [5] it was 1.34e+06 MFI; in experiment [6], 1.43e+06 MFI. For the same molecule, the MFI in experiment [7] came to 985000 MFI; in experiment [8], 602000 MFI; in experiment [9] it was 314000 MFI; in experiment [10] it was 189000 MFI; in [11], 94200 MFI; in experiment [12], 48500 MFI. The MFI in experiment [13] was 24600 MFI; in [14], 25700 MFI. For the same molecule, the EC50 in experiment [15] turned out to be 2.78 nM.

(Values after patent publication US20200140562A1 (Innovent, published 2020).)
